These results are taken from patent US20220331349A1, “TARGETED NANOPARTICLES AND THEIR USES RELATED TO FUNGAL INFECTIONS” (UNIVERSITY OF GEORGIA RESEARCH FOUNDATION, INC., priority 2019, published 2022).

The term Kd denotes a measure of binding affinity in units of concentration.

Where two headings read alike, the source gives them in different places.

For assay [1] the following is noted: cited from earlier work.
For the next assay, the system named is A. fumigatus. As to the kind of experiment: sDectin-2 liposome and DEC2-Rhod binding to A. fumigatus. Also on record: species or system Aspergillus fumigatus. The protocol: C. albicans CAI4 expressing GFP under control of the ADH1 promoter, A. fumigatus A1163, and wild type C. neoformans H99-alpha were grown in Vogel's Minimal Media (VMM)+1% glucose (85)+0.5% BSA or RPMI 1640 media with no red indicator dye (ThermoFisher SKU— 11835-030)+0.5% BSA or YPD (1% yeast extract, 2% peptone, 2% dextrose) in liquid with shaking or on 24 or 96 well polystyrene microtiter plates or on glass microscope chamber slides and incubated at 37° C. for 3 to 36 hr. Plates were pre-coated with poly-L-lysine for A. fumigatus and glass microscope slides were pre-coated with […]. All fungal cell growth was carried out in a BSL2 laboratory. […]
Formalin fixed fungal cells were incubated with liposomes at 23° C. in liposome dilution buffer LDB2 (20 mM HEPES, 10 mM Triethoanolamine, 150 mM NaCl, 10 mM CaCl2, 1 mM beta-mercaptoethanol (BME), 5% BSA pH 8.0), wherein the BME was added fresh. […] The area of liposome binding at 20× magnification was quantified by taking an 8-bit grey-scale copy of the unmodified red fluorescent TIF image into Image J (imagej.nih.gov/ij), using Image>Adjust>Threshold>Apply to capture just the red fluorescent areas illuminated by liposomes, and using Analyze>Measure to place the area data for each image in a file. Six to ten photographic images were generally analyzed and averaged for most area estimates. […]

For assay [2] the following is noted: cited from earlier work. The source holds these as a separate data set.

In the case of “sDectin-1: soluble extracellular C-terminal beta glucan binding domain of Dectin-1 (CLEC7A)”, the EC50 in assay [1] (read-out: EC50s for binding various beta-glucans, strong end of range) is ≥ 2.2e-09 mM; in assay [1] (read-out: EC50s for binding various beta-glucans, weak end of range), ≤ 2 mM. The Kd in assay [1] (read-out: Kd affinity constants for various beta-glucans, strong end of range) is ≥ 2.2e-09 mM; in assay [1] (read-out: Kd affinity constants for various beta-glucans, weak end of range), ≤ 2.6 mM.

B1: DEC2-Rhod: Rhodamine labeled sDectin-2 protein (conjugate, UniProt Q6EIG7 42-209, looked up)
extracellular domain: TYHFTYGETGKRLSELHSYHSSLTCFSEGTKVPAWGCCPASWKSFGSSCYFISSEEKVWSKSEQNCVEMGAHLVVFNTEAEQNFIVQQLNESFSYFLGLSDPQGNNNWQWIDKTPYEKNVRFWHLGEPNHSAEQCASIVFWKPTGWGWNDVICETRRNSICEMNKIYL
modifications: extracellular domain rhodamine label
notes: Rhodamine labeled sDectin-2 protein
Take B1: the “binding to A. fumigatus cell wall” value with A. fumigatus is “did not stain the cell wall”. The “binding to exopolysaccharide matrix of A. fumigatus” value in the assay on A. fumigatus (1 hr, 1:200 dilution) is reported as “bound strongly to most of the exopolysaccharide matrix surrounding A. fumigatus hyphal cells”.

B2: sDectin-2: soluble mannan-recognition domain of Dectin-2 (CLEC6A) (protein, UniProt Q6EIG7 42-209, looked up)
extracellular domain: TYHFTYGETGKRLSELHSYHSSLTCFSEGTKVPAWGCCPASWKSFGSSCYFISSEEKVWSKSEQNCVEMGAHLVVFNTEAEQNFIVQQLNESFSYFLGLSDPQGNNNWQWIDKTPYEKNVRFWHLGEPNHSAEQCASIVFWKPTGWGWNDVICETRRNSICEMNKIYL
modifications: extracellular domain
On to B2, for which the EC50 was ~2 mM in assay [2] (read-out: Effective Concentration for 50% of binding (EC50), mannan-a-1-2-mannan); ~0.15 mM in assay [2] (read-out: Effective Concentration for 50% of binding (EC50), mannoglycan); ~20 mM in assay [2] (read-out: Effective Concentration for 50% of binding (EC50), mannose).
